# According to publication PMC4086275, “Cryo-EM structure of the Plasmodium falciparum 80S ribosome bound to the anti-protozoan drug emetine” (eLife, 2014):
# B1: eS1, ribosomal protein of the Pf40S subunit (natural protein, P. falciparum (3D7 strain), UniProt O97313 1-262, looked up)
# chain: MAVGKNKRTSKGKKGGKKKVTDVFTKKEWYDLKAPKMFLVRNFGKTLVTKTIGKKLATDSLKGRIYEVNLADLNNDEDQAHKKIKLSCDHIINRDCYTDFCGLSITRDKLCSLIRKGYTLIEGHTDVKTLDNYHLRMFCIAFTKKRQNQTKSTCYAQTSQIKKIRKKMVDIMTAEASKVLLKDLVKKFIPESIGKEIEKQCKKIYPLQNVLIRKVKILKRPKLDISKLMELHTDPKEESGKNVNALPESKEATNILTAELKH
# notes: eS1 of the P. falciparum 3D7 cytoplasmic ribosome; total number of residues 262; built residues 24-233; extension compared to human 245-262; Native protein as part of the whole 80S ribosome; also called PF3D7_0322900; source: endogenous, in Pf80S ribosomes purified from P. falciparum 3D7 parasites (sucrose cushion, 10-40% sucrose gradient)
# Molecular target: T1, eL8, ribosomal protein of the Pf60S subunit (P. falciparum (3D7 strain), UniProt Q8ILL2 1-283)
# T1 construct: eL8 of the P. falciparum 3D7 cytoplasmic ribosome; total number of residues 283; built residues 40-46, 54-131, 147-283; extensions compared to human 11-24 and 279-283; Native protein as part of the whole 80S ribosome; also called Q8ILL2_PLAF7; PF3D7_1424400; source: endogenous, in Pf80S ribosomes purified from P. falciparum 3D7 parasites (sucrose cushion, 10-40% sucrose gradient)
# T1 sequence (looked up): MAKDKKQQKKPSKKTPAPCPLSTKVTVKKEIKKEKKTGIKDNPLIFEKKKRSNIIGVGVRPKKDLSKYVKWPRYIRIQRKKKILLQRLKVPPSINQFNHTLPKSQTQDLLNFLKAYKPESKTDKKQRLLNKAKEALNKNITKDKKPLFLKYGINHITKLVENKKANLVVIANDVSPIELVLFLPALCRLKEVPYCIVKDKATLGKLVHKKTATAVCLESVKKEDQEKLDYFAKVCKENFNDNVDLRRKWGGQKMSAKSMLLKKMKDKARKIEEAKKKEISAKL
# Assay: cryo-EM structure; native Pf80S ribosome purified from parasites, 160 nM, incubated with 1 mM emetine for 15 min at 25°C in 20 mM Hepes pH 7.4, 40 mM KCH3COO, 10 mM NH4CH3COO, 10 mM Mg(CH3COO)2, 5 mM 2-mercaptoethanol; 3.2 Å overall; the two proteins are members of the co-purified ribosome
# Conditions: both partners purified
binder,measurement,value
B1,binding result,binds
